B1: TPR t1 (parent)
chain: GACCAAUCUGCCCUCAGAGCUCGAGAACAUCUUCGGAUGCAGAGGAGGCAGGCUUCGGUGGCGCGAUAGCGCCAACGUCCUCAACCUCCAAUGCAUCCCACCACAUGAUGAUGCCUGAAGAGCCUUGGUUUUUUG

Variants of: B1
Assay: polymerase ribozyme fitness, log enrichment relative to wild type (log ratio); higher = more active; in vitro selection for triplet polymerase activity
In short: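 Streptavidin-bead capture of gel-excised extended constructs, followed by RT-PCR, closed a single triplicate in vitro selection round. That round began by annealing PCR-built, transcribed mutant libraries of each subunit of a heterodimeric triplet polymerase ribozyme with a biotinylated primer, the partner subunit and triplets, then incubating them frozen at −7 °C. After Illumina sequencing of inputs and outputs, genotypes needed ≥10 input reads and ≥1 read per output. Fitness is the base-2 logarithm of genotype enrichment over wild-type enrichment, using inverse-variance-weighted replicate averages.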

| Variant | polymerase ribozyme fitness (log ratio) |
| --- | --- |
| C94U G135U | -1.34 |
| U96C A100U | -1.08 |
| C101A C102A | -5 |
| C101A C115U | -2.63 |
| A95G G117C | -3.87 |
| G93A G128A | -1.95 |
| G93A G128C | -2.72 |
| U96A C98U | -3.4 |
| G93A C114A G122A U131A | -3.27 |
| G93A A100G U112C U131A | -2.69 |
| G93C A100C | -2.34 |
| A95G C98G G120U | -6.09 |
| G93C C104A A118U | -1.82 |
| C94A C101G | -2.45 |
| C98U U116C | -1.99 |
| C94A G113A | -0.888 |
| C99U A121G | -0.804 |
| C101A G113A G122C | -1.6 |
| C94A | -0.804 |
| C94G | -0.92 |
| C94U | -0.383 |

| Variant | polymerase ribozyme fitness (log ratio) |
| --- | --- |
| U92C U125G | -1.76 |
| G93A A111U G122C | -4.63 |
| G93U A121U | 1.23 |
| C99A U112G C114U | -6.6 |
| U96A U125G | -1.93 |
| C97U G117A | -2.32 |
| A100U U129A | -0.992 |
| U96G C102G C124U U125A | -6.03 |
| U96C C123G | 1.78 |
| C98A U112G | -5.66 |
| C98U G117C | -5.29 |
| C97A C114U | -5.03 |
| C101G G122C C124A U126A | -3.82 |
| G93C A105U C114G A119G | -7.51 |
| G93U G122A | -1.55 |
| G93C U96C G110A A118C | -2.57 |
| C101A U126G G127C | -2.49 |
| G93A G135C | -1 |
| G93U G128C | -4.57 |
| G93C C101A C123A U125A U131A | -1.5 |
| G93A G110U | -2.04 |

| Variant | polymerase ribozyme fitness (log ratio) |
| --- | --- |
| C94G G113A | -3.13 |
| G93C | -0.928 |
| G93U | -1.12 |
| G93A | -0.498 |
| C101G G127U | -2.83 |
| U96A G120C | 0.228 |
| U96A G113U | -3.61 |
| A100C G110C | -4.94 |
| C99A U112A G120A | -5.93 |
| G93C C102A | -2.96 |
| C101A G117U G122A U125A | -4.5 |
| A100C G117A | -2.55 |
| G93U U112A | 0.151 |
| C99A C123G | -4.92 |
| C94G C123U | 0.403 |
| A95U A103G | -6.8 |
| U96A G128C | -3.28 |
| C101G G120C | -0.696 |
| C101A G113A | -2.4 |
| C99U G117U | -3.93 |
| G93A G110A U112A | -2.76 |

| Variant | polymerase ribozyme fitness (log ratio) |
| --- | --- |
| U92G C104G | -7.29 |
| A100C C104U | -0.176 |
| U96G U129C | -0.569 |
| C97U U106A U132G U133A | 0.00837 |
| A95G C102U | -1.91 |
| C99A G120C | -3.95 |
| C97U A119U C123A | -1.43 |
| A95C U116C U129A U131C G135U | -3 |
| G93A A118U U133A | 0.0816 |
| C94G U109A | -6.28 |
| A100C C101G C104A C124A | -3.18 |
| A95G C104A U109C C114U C124A | -2.73 |
| C98A C123U | -4.06 |
| C101G U133G | -2.02 |
| C98U G110A | -2.39 |
| C98U G110C | -4.91 |
| C99A C102U | -4.82 |
| C94A G110U | -2.28 |
| U96C A118U | 1.27 |
| G93A U96A | -1.69 |

Reference: the RNAGym collection of RNA variant scans (doi:10.1073/pnas.2313332121)
